The values that follow come from patent US11311625B2, “Peptide-based multiple-drug delivery vehicle” (priority 2015, dated 2022).

Read-outs that look alike come from different tables or passages of the source.

The nature of data set [1]: Bio-stability of 9a in murine liver homogenate (LH). In kind it is in vitro ADME, mouse. On the procedure: Preparation of the LH and assay: Mice were sacrificed by CO2 inhalation euthanasia. The livers were removed, minced, washed three times in cold PBS buffer and homogenized in Tris-HCl, pH 7.4 buffer (wt/3 vol.) by dozen strokes in a Potter-Elvehjem glass tissue grinder. The tissue homogenate was centrifuged at 4° C., 14000 rpm, 20 min. The supernatant was carefully collected (LH) and used immediately or else stored in liquid nitrogen. The concentration of protein was measured using the BCA protein assay with bovine serum albumin as a standard.
Assay incubation procedure: Incubations were conducted in an incubator oven set at 37° C. Each incubation tube contained 2 mL homogenate samples (equivalent to 6 mg total protein of mouse LH). The samples were prepared by adding 50 μL of stock solution to the LH at the beginning of the incubation period. Aliquots (100 μL) of the LH mixture were removed after 10, 30, 60, 90, 120, and 180 min. immediately quenched with 2.5 volumes of ethanol, and centrifuged at 14000 rpm for 15 min. The supernatants were collected, filtered and analyzed by LC-MS.
In order to get a biologically relevant picture of the release sequence of the different drugs, the bio-stability of 9a in murine liver homogenate (LH) was studied. Examination of the degradation rate of 9a, accompanied by cleavage of free drugs, was carried out following the LC-MS trace at different time intervals using premade authentic samples as reference signals.

Data set [2] has as its system HEK293 and TRAMP C2 cell lines. In kind it is cell-based, human. How it is done:
The cytotoxicity of the conjugates was determined by measuring the mitochondrial enzyme activity, using a commercial XTT assay kit. All samples contained DMSO at a final concentration <0.05%. Cells were cultured in micro wells at 2-4×10^4 cells/mL and incubated for 24 h or 72 h at 37° C. After the first incubation period of 24 h the cultures were washed and then given a fresh medium containing different concentrations of the tested substances. At the end of the second incubation, XTT reagent was added and the cells were re-incubated for additional 2-4 h. During that time the absorbencies in the wells were measured with a TECAN Infinite M200 ELISA reader at both 480 and 680 nm. […]
The in vitro activity of 9a was determined on human embryonic kidney 293 (HEK293) cells and human prostate cancer TRAMP C2 cell lines in order to compare the cytotoxicity of 9a relative to the three selected free drugs. […] The cytotoxicity of 9a was determined by measuring the mitochondrial enzyme activity of the different cell lines after incubation with the different substances for 24 h and 72 h. The viability factor (% of surviving cells) of the cell cultures was calculated relative to a control sample incubated with the vehicle only, considered as 100% viability. […]
FIGS. 19A-19D present the results of the viability assay (% surviving cells) of the cell cultures calculated relative to the control, 100% viability. […]

In data set [3] the test system is human embryonic kidney 293 (HEK293) cells. The data set is classed as cell-based. How it is done:
(§1) The cytotoxicity of the conjugates was determined by measuring the mitochondrial enzyme activity, using a commercial XTT assay kit. All samples contained DMSO at a final concentration <0.05%. Cells were cultured in micro wells at 2-4×10^4 cells/mL and incubated for 24 h or 72 h at 37° C. After the first incubation period of 24 h the cultures were washed and then given a fresh medium containing different concentrations of the tested substances. At the end of the second incubation, XTT reagent was added and the cells were re-incubated for additional 2-4 h. During that time the absorbencies in the wells were measured with a TECAN Infinite M200 ELISA reader at both 480 and 680 nm. The difference between these measurements was used for calculating the % viability in test wells compared to two controls: cells that were exposed to the medium and solvent, and those which were exposed to a solvent-free medium. All the tests were done in triplicate. Each experiment was conducted twice.
(§2) The in vitro activity of 9a was determined on human embryonic kidney 293 (HEK293) cells and human prostate cancer TRAMP C2 cell lines in order to compare the cytotoxicity of 9a relative to the three selected free drugs. […] The cytotoxicity of 9a was determined by measuring the mitochondrial enzyme activity of the different cell lines after incubation with the different substances for 24 h and 72 h.

Data set [4] relates to human prostate cancer TRAMP C2 cell lines. In kind it is cell-based. On the procedure: as §1, §2
In data set [5] the test system is HCT 116, H1299, TRAMP C2 and HEK cell lines. The data set is described as follows: XTT growth inhibition assay, statements over all tested cell lines. In kind it is cell-based, human. Conditions: tested cell lines including HEK. How it is done:
The cytotoxicity of the peptide-drug conjugates was determined by measuring the mitochondrial enzyme activity, using a commercial XTT assay kit. All samples contained DMSO at final concentration <0.05%. Cells were cultured in micro wells at 2-4×10^4 cells/ml and incubated for 24 h or 72 h. After the first incubation period the cultures were washed and then given fresh medium containing different concentrations of the tested substances. At the end of the second incubation, XTT reagent was added and the cells were re-incubated for additional 2-4 h. During that time the absorbencies in the wells were measured with a TECAN Infinite M200 plate reader at both 480 and 680 nm. The difference between these measurements was used for calculating the % Growth Inhibition (GI) in test wells compared to two controls: cells that were exposed to the medium and solvent, and those that were exposed to a solvent-free medium. All the tests were done in quadruplicates. Each experiment was conducted twice.
In order to compare the cytotoxic effects of the conjugates relative to the free drugs, the in vitro cytotoxic effect of the drug bioconjugates 1a-e was determined on SSTR2 overexpressed HCT 116 human colorectal carcinoma, H1299 human non-small cell lung carcinoma and TRAMP C2 human prostate cancer cell lines. The SSTR2 low-expressed HEK-293 (Human Embryonic Kidney 293) cell line was used as a negative control. The study was elaborated over a concentration range of 1-10 μM.
FIGS. 13A-13D present the results of the XTT growth inhibition assay conducted for conjugates 1a-e. Growth inhibition effect of drug-conjugates versus free drugs was studied on three cell lines with an over-expression of SSTR2 (FIG. 13A. HCT 116; FIG. 13B. H1299; FIG. 13C. TRAMP C2) against the SSTR2 low expression cell line (FIG. 13D) HEK as negative control. All the cell lines were seeded and allowed to adhere in the wells, after which they were treated with the different compounds in increasing concentrations for 24 and 72 hr. After the treatment, growth inhibition was measured using the XTT assay: The culture medium was replaced by a new one, and then the XTT reagent was added. The wells were incubated for 2-4 hrs. after which the optical density (OD) was measured at 480 and 680 nm. Percentage of growth inhibition for each compound was calculated by comparison of the treated culture versus a control culture (free of any compound). The result shown for each concentration point represents the mean±standard error calculated from two different experiments. In each experiment the compounds were tested in quadruplicates.
In general terms: Formazan colour is commonly taken as a measure of viable cells.

In data set [6] the test system is HEK-293 (Human Embryonic Kidney 293) cell line. As to the kind of experiment: XTT growth inhibition assay, HEK-293 negative control. In kind it is cell-based. How it is done: The cytotoxicity of the peptide-drug conjugates was determined by measuring the mitochondrial enzyme activity, using a commercial XTT assay kit. All samples contained DMSO at final concentration <0.05%. Cells were cultured in micro wells at 2-4×10^4 cells/ml and incubated for 24 h or 72 h. After the first incubation period the cultures were washed and then given fresh medium containing different concentrations of the tested substances. At the end of the second incubation, XTT reagent was added and the cells were re-incubated for additional 2-4 h. During that time the absorbencies in the wells were measured with a TECAN Infinite M200 plate reader at both 480 and 680 nm. […]
In order to compare the cytotoxic effects of the conjugates relative to the free drugs, the in vitro cytotoxic effect of the drug bioconjugates 1a-e was determined on SSTR2 overexpressed HCT 116 human colorectal carcinoma, H1299 human non-small cell lung carcinoma and TRAMP C2 human prostate cancer cell lines. […]
FIGS. 13A-13D present the results of the XTT growth inhibition assay conducted for conjugates 1a-e. […] After the treatment, growth inhibition was measured using the XTT assay: The culture medium was replaced by a new one, and then the XTT reagent was added. The wells were incubated for 2-4 hrs. after which the optical density (OD) was measured at 480 and 680 nm. […]

Data set [7] can be described thus: Chemo-stability and drug release of 9a and CLB in buffers at pH 2, 5 and 7.4 (LC-MS). In kind it is physicochemical. Conditions: for half-life at 0.04 mg/mL: buffer, read-out: degradation t1/2 (converted). How it is done: Stock solutions chemo-stability studies were prepared by dissolving 5 mg of the tested compound in 5000 μl of DMSO.
Incubation procedure: Aqueous stability was determined at pH 2, 5 and 7.4. Aliquots (100 μl) of stock solution were diluted to a total of 2.5 mL with the desired buffer and then incubated at 37° C. During the incubation period (up to 160 h) 250 μL portions were drawn at different time intervals, filtered and analyzed by LC-MS.
Peptidyl delivery systems loaded with anticancer drugs are expected to reach their site of action with minimal degradation. The PDS should be stable enough to be absorbed by cancer cells and only then deliver its toxic cargo. Chemo-stability and bio-stability studies may give us a background check for the endurance of our compact peptidyl DDS under the different conditions it is expected to encounter in a potential animal test. To that end, samples of 9a were incubated at pH 2, mimicking stomach conditions, at pH 5 mimicking the microenvironment in tumors, and at physiological pH 7.4, all at 37° C. Aliquots from the stock solutions were extracted at different time intervals and analyzed by LC-MS following the decrease in concentration of 9a (i.e., chemical degradation) and the formation of the dihydroxy derivative 11. In addition, the direct release of the different drugs was also followed based on the increase in the concentration of CLB, AZA and CAMP over time. In this analysis samples of 9a, 11, CLB, AZA and CAMP were used as references. Overall, the HPLC trace presents a very complex mixture of metabolites which could not be exhaustively characterized. Scheme 9 below presented the molecular structure 11.

Turning to `COc1cc([C@@H]2c3[nH]c4ccccc4c3C[C@H]3COC(=O)N32)cc(OC)c1O` [AZA, Azatoxin, reference compound], the “stability of free drug in LH” value in data set [1] is “stable”. Also, in data set [2], the “cytotoxic effect / relative cytotoxic activity” value is “most active drug”. For the same molecule, the surviving cells result in data set [3] and in data set [4] was “less than 10%” in each case.
As for `CC[C@@]1(O)C(=O)OCc2c1cc1n(c2=O)Cc2cc3ccccc3nc2-1` [CPT, Camptothecin], the IC50 values entry in data set [5] is listed as “low μM range”. Further, in data set [6], the cytotoxic effect result was “toxic”.
In the case of `CC[C@@]1(OC(=O)NCCCC[C@H](NC(=O)CCCc2ccc(N(CCCl)CCCl)cc2)C(=O)NCCCC[C@H](NC(=O)Oc2c(OC)cc([C@@H]3c4[nH]c5ccccc5c4C[C@H]4COC(=O)N43)cc2OC)C(=O)O)C(=O)OCc2c1cc1n(c2=O)Cc2cc3ccccc3nc2-1` [9a, Lys(AZA)-Lys(CBL)(CAMP)], in data set [1], the “presence of free AZA” value is given as “could not be detected”, the “time to concentration plateau of released CAMP” value turned out to be 30 min and the “time to steady state plateau of released CLB” value was 80 min. Further, in data set [1] (37° C.), the “drug release in LH” value was “quick release of CLB and CAMP”. Also, the “cytotoxic effect / relative cytotoxic activity” value in data set [2] (0.1-10 μM, both cell lines) was “comparable level to the tested free drugs”. For the same molecule, the half-life at 0.04 mg/mL in data set [7] (pH 2, 37° C.) was 120 min. The half-life at 0.04 mg/mL in data set [7] (pH 5, 37° C.) was 90 min. Moreover, the “release of the three drugs” value in data set [7] (pH 2) is listed as “none of the three drugs appeared to be released intact or at all”. Besides, in data set [7] (pH 5), the “appearance of free AZA” value was “not detected”, the “maximum concentration of released CAMP” value worked out at 34 nM, the “period in which released CAMP decays completely” value was not above 80 h and the “time at which CLB could be first detected” value came to 38 h. In addition, in data set [7] (pH 5), the “time to maximum concentration of released CAMP” value came out at 21 h. In data set [7] (pH 5, after 100 h), the “concentration of released CLB” value is not above 44 nM. Besides, in data set [7] (pH 7.4), the “free CLB” value was “not detected”, the “maximum concentration plateau of released AZA” value was 12 nM, the “time at which AZA concentration starts to rise above base-line” value is reported as 20 h and the “time at which CAMP could be detected” value was determined as 75 h. Moreover, in data set [7] (pH 7.4), the “time to maximum concentration of released CAMP” value worked out at 100 h and the “time to maximum concentration plateau of released AZA” value turned out to be 40 h.
